B1: 39B6-A IgG4 S228P (antibody, V domains shown)
VH: QVQLVQPGAEVRKPGASVKVSCKASGYRFTSYYIDWVRQAPGQGLEWMGRIDPEDAGTKYAQKFQGRVTMTADTSTSTVYVELSSLRSEDTAVYYCARNEWETVVVGDLMYEYEYWGQGTLVTVSS
VL: DIQMTQSPSSLSASVGDRVTITCQASQSISSYLAWYQQKPGQAPKILIYGASRLKTGVPSRFSGSGSGTSFTLTISSLEPEDAATYYCQQYASVPVTFGQGTKVEIKR
notes: 39B6 with G55A in HCDR2, in the human IgG4 S228P backbone; also called 39B6-ANE
B2: 39B6-AEE IgG4 S228P (antibody, V domains shown)
VH: QVQLVQPGAEVRKPGASVKVSCKASGYRFTSYYIDWVRQAPGQGLEWMGRIDPEDAGTKYAQKFQGRVTMTADTSTSTVYVELSSLRSEDTAVYYCAREEWETVVVGDLMYEYEYWGQGTLVTVSS
VL: DIQMTQSPSSLSASVGDRVTITCQASQSISSYLAWYQQKPGQAPKILIYGASRLKTGVPSRFSGSGSGTSFTLTISSLEPEDAATYYCQQYASVPVTFGQGTKVEIKR
B3: Fab 38F2 (Fab, V domains shown)
VH: QVQLVQPGAELKKPGASVKVSCKASGYRFTSYYIDWVRQAPGQGLEWMGRIDPEDAGTKYAQKFQGRVTFTADTSTSTVYVELSSLRSEDTAVYYCARNEWETVVVGDLTYEYEYWGQGTLVTVSS
VL: DIQMTQSPSSLSASVGDRVTITCQASQSISSYLAWYQQKPGKAPNLLIYGASRLKTEVPSRFSGSGSGTDFTLISGLEPEDAGTYYCQQYASVPVTFGQGTKVEIK
notes: Germlined Fab with human CH1 and Cκ (pCB13), tested as periplasmic extract
B4: Fab 39B10 (Fab, V domains shown)
VH: EVQLVQSGAELKKPGASVKVSCKASGYRFTSYYIDWVRQAPGQGLEWMGRIDPEEGGTKYAQKFQGRVTMTADTSTSTAYMELSSLRSEDTAVYYCARNEWETVVVGDLMYEYEYWGQGTLVTVSS
VL: DIQMTQSPSSLSASLGDRVTITCQASQSISSYLAWYQQKPGQAPNILIYGASRLKTGVPSRFSGSGSGTDFTLTISGLEAEDFATYYCQQYASVPVTFGQGTKVEIK
notes: as for B3
B5: Fab 39B6 (Fab, V domains shown)
VH: QVQLVQPGAEVRKPGASVKVSCKASGYRFTSYYIDWVRQAPGQGLEWMGRIDPEDGGTKYAQKFQGRVTMTADTSTSTVYVELSSLRSEDTAVYYCARNEWETVVVGDLMYEYEYWGQGTLVTVSS
VL: DIQMTQSPSSLSASVGDRVTITCQASQSISSYLAWYQQKPGQAPKILIYGASRLKTGVPSRFSGSGSGTSFTLTISSLEPEDAATYYCQQYASVPVTFGQGTKVEIK
notes: as for B3
B6: Fab 39A12 (Fab, V domains shown)
VH: EVQLVQPGAEVKKPGASVKVSCKASGYRFTSYYIDWVRQAPGQGLEWMGRIDPEEGGTKYAQKFQGRVTFTADTSTSTVYVELSSLRSEDTAVYYCARNEWETVVVGDLTYEYEYWGQGTLVTVSS
VL: DIQMTQSPSSLSASVGDRVTITCQASQSISSYLAWYQQKPGQAPKILIYGASRLKTGVPSRFSGSGSGTDFTLTISSLQAEDFATYYCQQYASVPVTFGQGTKVEIK
notes: Germlined Fab from the phage library with human CH1 and Cκ (pCB13), tested as periplasmic extract
B7: Fab 39A5 (Fab, V domains shown)
VH: QVQLVQPGAELRNPGASVKVSCKASGYRFTSYYIDWVRQAPGQGLEWMGRIDPEDGGTKYAQKFQGRVTFTRDTSTSTVYMELSSLRSEDTAVYYCARNEWETVVVGDLMYEYEYWGQGTLVT
VL: DIQMTQSPSSLSASLGDRVTITCQASQSISSYLAWYQQKPGQAPKLLIYGASRLKTGVPSRFSGSGSGTDFTLTISSLQPEDAATYYCQQYASVPVTFGQGTKVEIK
notes: as for B3
B8: 39A12 human IgG1 (antibody, V domains shown)
VH: EVQLVQPGAEVKKPGASVKVSCKASGYRFTSYYIDWVRQAPGQGLEWMGRIDPEEGGTKYAQKFQGRVTFTADTSTSTVYVELSSLRSEDTAVYYCARNEWETVVVGDLTYEYEYWGQGTLVTVSS
VL: DIQMTQSPSSLSASVGDRVTITCQASQSISSYLAWYQQKPGQAPKILIYGASRLKTGVPSRFSGSGSGTDFTLTISSLQAEDFATYYCQQYASVPVTFGQGTKVEIK
notes: Full human IgG1, made in HEK 293E cells; also called 39A12_T
B9: 39B6 human IgG1 (antibody, V domains shown)
VH: QVQLVQPGAEVRKPGASVKVSCKASGYRFTSYYIDWVRQAPGQGLEWMGRIDPEDGGTKYAQKFQGRVTMTADTSTSTVYVELSSLRSEDTAVYYCARNEWETVVVGDLMYEYEYWGQGTLVTVSS
VL: DIQMTQSPSSLSASVGDRVTITCQASQSISSYLAWYQQKPGQAPKILIYGASRLKTGVPSRFSGSGSGTSFTLTISSLEPEDAATYYCQQYASVPVTFGQGTKVEIK
notes: Full human IgG1, made in HEK 293E cells
B10: 39B10 human IgG1 (antibody, V domains shown)
VH: EVQLVQSGAELKKPGASVKVSCKASGYRFTSYYIDWVRQAPGQGLEWMGRIDPEEGGTKYAQKFQGRVTMTADTSTSTAYMELSSLRSEDTAVYYCARNEWETVVVGDLMYEYEYWGQGTLVTVSS
VL: DIQMTQSPSSLSASLGDRVTITCQASQSISSYLAWYQQKPGQAPNILIYGASRLKTGVPSRFSGSGSGTDFTLTISGLEAEDFATYYCQQYASVPVTFGQGTKVEIK
notes: as for B9
B11: 39A5 human IgG1 (antibody, V domains shown)
VH: QVQLVQPGAELRNPGASVKVSCKASGYRFTSYYIDWVRQAPGQGLEWMGRIDPEDGGTKYAQKFQGRVTFTRDTSTSTVYMELSSLRSEDTAVYYCARNEWETVVVGDLMYEYEYWGQGTLVT
VL: DIQMTQSPSSLSASLGDRVTITCQASQSISSYLAWYQQKPGQAPKLLIYGASRLKTGVPSRFSGSGSGTDFTLTISSLQPEDAATYYCQQYASVPVTFGQGTKVEIK
notes: as for B9
B12: 38F2 human IgG1 (antibody, V domains shown)
VH: QVQLVQPGAELKKPGASVKVSCKASGYRFTSYYIDWVRQAPGQGLEWMGRIDPEDAGTKYAQKFQGRVTFTADTSTSTVYVELSSLRSEDTAVYYCARNEWETVVVGDLTYEYEYWGQGTLVTVSS
VL: DIQMTQSPSSLSASVGDRVTITCQASQSISSYLAWYQQKPGKAPNLLIYGASRLKTEVPSRFSGSGSGTDFTLISGLEPEDAGTYYCQQYASVPVTFGQGTKVEIK
notes: as for B9

target: T1, human GARP-TGF-β1 complex (recombinant complex of human GARP and latent human TGF-β1) (human, UniProt Q14392 20-627; P01137 30-278; P01137 279-390); experiment: SPR Biacore T200, CM5 chip coated with GARP-TGF-β1 complex at 150 RU
T1 construct: also called huGARP-TGF-β1; hGARP-TGF-β1
T1 sequence (Q14392 20-627 limits assumed, chain 1 of 3): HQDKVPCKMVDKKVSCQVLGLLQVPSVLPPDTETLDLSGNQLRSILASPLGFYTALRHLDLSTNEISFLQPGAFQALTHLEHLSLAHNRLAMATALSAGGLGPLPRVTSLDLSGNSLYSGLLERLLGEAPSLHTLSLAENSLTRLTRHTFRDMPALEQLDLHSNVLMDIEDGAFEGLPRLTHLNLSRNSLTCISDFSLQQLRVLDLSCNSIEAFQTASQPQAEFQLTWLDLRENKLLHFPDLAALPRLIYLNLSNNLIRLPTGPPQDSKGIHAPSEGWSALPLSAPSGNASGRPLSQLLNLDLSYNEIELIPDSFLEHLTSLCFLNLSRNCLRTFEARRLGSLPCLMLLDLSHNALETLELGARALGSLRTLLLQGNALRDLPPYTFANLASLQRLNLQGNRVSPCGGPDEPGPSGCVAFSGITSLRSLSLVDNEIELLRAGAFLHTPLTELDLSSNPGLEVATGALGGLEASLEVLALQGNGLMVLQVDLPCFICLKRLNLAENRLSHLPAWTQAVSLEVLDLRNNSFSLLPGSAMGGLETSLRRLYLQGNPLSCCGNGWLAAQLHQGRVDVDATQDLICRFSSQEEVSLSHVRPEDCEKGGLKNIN
T1 sequence (P01137 30-278 limits assumed, chain 2 of 3): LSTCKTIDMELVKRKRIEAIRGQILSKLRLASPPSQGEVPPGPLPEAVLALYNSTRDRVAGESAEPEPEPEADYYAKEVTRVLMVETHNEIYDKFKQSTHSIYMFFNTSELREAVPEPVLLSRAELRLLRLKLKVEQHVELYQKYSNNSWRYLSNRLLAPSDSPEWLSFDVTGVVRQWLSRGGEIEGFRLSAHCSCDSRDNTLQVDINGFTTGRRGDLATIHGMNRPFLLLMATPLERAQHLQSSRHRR
T1 sequence (P01137 279-390 limits assumed, chain 3 of 3): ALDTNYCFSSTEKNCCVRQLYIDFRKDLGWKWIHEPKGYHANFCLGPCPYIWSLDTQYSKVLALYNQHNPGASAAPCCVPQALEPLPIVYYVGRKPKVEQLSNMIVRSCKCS
Description: (§1) The affinity of all antibodies (including 39B6-A) for GARP-TGF-β1 was tested by BiacoreT200 using a CM5 chip coated with GARP-TGF-β1 complex at 150RU (Table 17) or coated with the antibodies at 200RU (Table 17)

Compared with B1, B2 is higher in “Fold-difference (KD vs 39B6-A)” value: 1 fold for the first, 5.8 fold for the second.

Going from B1 to B2, the Kd rises from 0.991 nM to 5.79 nM (5.8-fold).

target: T1, human GARP-TGF-β1 complex (recombinant …); experiment: SPR Biacore T200, CM5 chip coated with the antibody at 200 RU, complex in solution
Description: as §1

Going from B1 to B2, the “Fold-difference (KD vs 39B6-A)” value rises from 1 fold to 76.7 fold.

Compared with B1, B2 is 77-fold higher in Kd: 1.33 nM for the first, 102 nM for the second. The first binds more tightly here.

target: T1, human GARP-TGF-β1 complex (recombinant …); experiment: SPR, Fab in periplasmic extract, off-rate on human GARP-TGF-β1 complex
Description: Masterplates were picked from selection round 2, 3, 4, 5 and 6 (48 clones for each round). Periplasmic extracts were prepared and off-rates were determined by SPR. All clones were DNA-sequenced and amino acid sequences were deduced thereof. The off-rates of these clones were measured as periplasmic extracts on SPR, and compared to the off-rate of Fab 17H5.

Going from B3 to B4, the koff falls from 0.000408 s⁻¹ to 0.000236 s⁻¹ (1.7-fold).

Going from B5 to B6, the koff rises from 0.000105 s⁻¹ to 0.000606 s⁻¹ (5.8-fold).

Binder B7 has a koff of 0.00019 s⁻¹.

target: T1, human GARP-TGF-β1 complex (recombinant …); experiment: SPR, IgG1 on human GARP-TGF-β1 complex
Description: The five germlined clones reformatted to human IgG1 were produced by transient transfection in HEK 293E cells.

Going from B8 to B9, the Kd falls from 0.505 nM to 0.167 nM (3-fold).

B10 and B11 are within 1.5-fold of each other in Kd: 0.262 nM for the first, 0.298 nM for the second.

For B12, the Kd was 0.48 nM.

Going from B8 to B9, the “fold difference (KD vs 17H5)” value falls from 5.1 fold to 1.7 fold.

Compared with B10, B11 is higher in “fold difference (KD vs 17H5)” value: 2.6 fold for the first, 3 fold for the second.

In the case of B12, the “fold difference (KD vs 17H5)” value is reported as 4.8 fold.

Reference: US20210324061A1 (ARGENX BVBA, published 2021)
